Article PMC11667970, “Mycobacterium tuberculosis Mce3R TetR-like Repressor Forms an Asymmetric Four-Helix Bundle and Binds a Nonpalindrome Sequence†” (ACS Chemical Biology, 2024)
Where “and” joins values, the source holds several entries; their conditions need not be identical. Equal values may be shown once.

Key:
[1] = target: the molecule itself; test: SEC
[2] = target: the molecule itself; test: SEC; M1 on Superdex 200 HiLoad 16:60, Buffer E (20 mM Tris-HCl pH 7.5, 0.2 M NaCl); two peaks (Figure S1B)
[3] = target: T1, Mce3R R53A (Mycobacterium tuberculosis H37Rv, UniProt P95251 1-406, R53A); test: EMSA; 0-128 nM; high-affinity binding lost; conditions: protein: recombinant; tags: MBP-His6 N-terminal, removed with TEV (same protocol as WT); chain copies: 2; label: 5'-Cy3 (forward strand); blunt
T1 sequence: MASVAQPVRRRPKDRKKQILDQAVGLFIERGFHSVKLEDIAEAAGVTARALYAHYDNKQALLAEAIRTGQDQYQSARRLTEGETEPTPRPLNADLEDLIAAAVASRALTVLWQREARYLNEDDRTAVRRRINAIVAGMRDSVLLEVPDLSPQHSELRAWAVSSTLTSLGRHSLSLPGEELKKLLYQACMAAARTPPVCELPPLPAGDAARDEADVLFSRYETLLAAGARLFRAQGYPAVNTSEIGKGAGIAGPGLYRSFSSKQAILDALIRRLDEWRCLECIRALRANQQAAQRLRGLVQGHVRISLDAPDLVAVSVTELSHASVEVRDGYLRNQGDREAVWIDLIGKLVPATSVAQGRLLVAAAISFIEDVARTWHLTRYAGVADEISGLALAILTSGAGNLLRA

B1: Mce3R R53A variant (natural protein)
chain: MASVAQPVRRRPKDRKKQILDQAVGLFIERGFHSVKLEDIAEAAGVTARALYAHYDNKQALLAEAIRTGQDQYQSARRLTEGETEPTPRPLNADLEDLIAAAVASRALTVLWQREARYLNEDDRTAVRRRINAIVAGMRDSVLLEVPDLSPQHSELRAWAVSSTLTSLGRHSLSLPGEELKKLLYQACMAAARTPPVCELPPLPAGDAARDEADVLFSRYETLLAAGARLFRAQGYPAVNTSEIGKGAGIAGPGLYRSFSSKQAILDALIRRLDEWRCLECIRALRANQQAAQRLRGLVQGHVRISLDAPDLVAVSVTELSHASVEVRDGYLRNQGDREAVWIDLIGKLVPATSVAQGRLLVAAAISFIEDVARTWHLTRYAGVADEISGLALAILTSGAGNLLRA
notes: not shown: MBP, N-terminal, cleaved; His6, N-terminal, cleaved
Which “stoichiometry N” value [1] does the source give for B1 here?
The value was 2 and 4.

B2: M1, N-terminal TFR segment of Mce3R (amino acids 13-193) (domain or fragment)
chain: KDRKKQILDQAVGLFIERGFHSVKLEDIAEAAGVTARALYRHYDNKQALLAEAIRTGQDQYQSARRLTEGETEPTPRPLNADLEDLIAAAVASRALTVLWQREARYLNEDDRTAVRRRINAIVAGMRDSVLLEVPDLSPQHSELRAWAVSSTLTSLGRHSLSLPGEELKKLLYQACMAAAR
notes: Mce3R (Rv1963c), Mycobacterium tuberculosis H37Rv, amino acids 13-193 (M1); calculated monomer MW 20.2 kDa; also called M1 homotetramer; M1 homodimer
With B2 as the binder, how does the “stoichiometry N” value [2] read?
The value was 4 and 2.

B3: Probe A (dsDNA)
DNA 1: GCCCCGCGCTATAGGATACTAGCAAGATACATCATAGCCAATATATGCCAGTTTGCATTGCTATTTACCGATCAGTTGTCCAAGCAATCGCGTATTGGCTATGGACATCAGCGGTTCTGCCGC
DNA 2: GCGGCAGAACCGCTGATGTCCATAGCCAATACGCGATTGCTTGGACAACTGATCGGTAAATAGCAATGCAAACTGGCATATATTGGCTATGATGTATCTTGCTAGTATCCTATAGCGCGGGGC
Does B3 bind [3]?
Result: no binding
